Test: yeast display, Sf9 membrane polyspecificity reagent, FACS + sequencing; frameworks hold sequencing errors
Outline: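 Galactose induction of a Saccharomyces cerevisiae BJ5465 synthetic nanobody display library ran 36–48 hours. The cells were then stained for 1 hour at 4 °C with 10% biotinylated, detergent-solubilized Sf9 membrane reagent, pulled down on streptavidin microbeads and FACS-sorted into low and high (top ~1%) gates on expression and reagent-binding fluorescence. Labels for polyreactivity follow the gate of origin.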

| Sequence | polyreactivity (PSR sort gate) |
| --- | --- |
| QVQLVESGGGLVQAGGSLRLSCAASGRILSYYAMGWYRQAPGKERELVATISASGGSTFYADSVKGRFTISRDNAKNTVYLQMNSLKPEDTAVYYCNAYWGRRVQRDYWGQGTQVTVSS | high polyreactivity |
| QVQLVESGGGLVQAGGSLRLSCAASGRILTFYGLGWYRQAPGKERELVAAISNGGSTYYADSVKGRFTISRDNAKNTVYLQMNSLKPEDTAVYYCAKRILTAPRRNSGYDYWGQGTQVTVSS | low polyreactivity |
| QVQLVESGGGLVQAGGSLRLSCAASGRILVPNAMGWYRQAPGKERELVATITSSGSTYADSVKGRFTISRDNAKNTVYLQMNSLKPEDTAVYYCAAKYTGSFINYGLWGTYFEDDYWGQGTQVTVSS | low polyreactivity |
| QVQLVESGGGLVQAGGSLRLSCAASGRILVYYAMGWYRQAPGKEREFVAAISQRGGSTYYADSVKGRFTISRDNAKNTVYLQMNSLKPEDTAVYYCATRPIQYRRGYDYWGQGTQVTVSS | high polyreactivity |
| QVQLVESGGGLVQAGGSLRLSCAASGRILWSYAMGWYRQAPGKERELVASISGRGGSTYYADSVKGRFTISRDNAKNTVYLQMNSLKPEDTAVYYCAAYRLRFWSMDYWGQGTQVTVSS | high polyreactivity |
| QVQLVESGGGLVQAGGSLRLSCAASGRILYGYAMGWYRQAPGTERELVASLSSGGRTYYADSVKGRFTISRDNAKNTVYLQMNSLKPEDTAVYYCAAVAYGNWYRYYYWGQGTQVTVSS | high polyreactivity |
| QVQLVESGGGLVQAGGSLRLSCAASGRILYGYVMGWYRQAPGKERELVAAISWSGARTYYADSVKGRFTISRDNAKNTVYLQMNSLKPEDTAVYYCAARVPSWKYDYWGQGTQVTVSS | high polyreactivity |
| QVQLVESGGGLVQAGGSLRLSCAASGRILYHYAMGWYRQAPGKERELVAAITFSGDTTYYADSVKGRFTISRDNAKNTVYLQMNSLKPVDTAVYYCNTVYYWNYVSRLYDYWGQGTQVTVSS | high polyreactivity |
| QVQLVESGGGLVQAGGSLRLSCAASGRILYLNAMGWYRQAPGKERELVAAITRRAGSTRYADSVKGRFTISRDNAKNTVYLQMNSLKPEDTAVYYCAVAYYRNRMDYWGQGTQVTVSS | high polyreactivity |
| QVQLVESGGGLVQAGGSLRLSCAASGRILYPYAMGWYRQAPGKERELVASISWSGGRTYYADSVKGRFTISRDHAKYTVYLQMNSLKPEDTAVYYCAATFSYSSYIYDYWGQGTQVTVSS | high polyreactivity |
| QVQLVESGGGLVQAGGSLRLSCAASGRILYQYAMGWYRQAPGKERELVASISGRSGRTRYADSVKGRFTISRDNAKNTVYLQMNSLKPEDTAVYYCNAGSSVLKYDYWGQGTQVTVSS | low polyreactivity |
| QVQLVESGGGLVQAGGSLRLSCAASGRILYQYAMGWYRQAPGKVRELVASISGRSGRTRYADSVKGRFTISRDIAKNTVSLQMNSLKPEDTAVYYCYAGTSVLKYDYWGQGTQVTVSS | low polyreactivity |
| QVQLVESGGGLVQAGGSLRLSCAASGRILYSYAMGWYRQAPGKEREFVAAIRRSGGSTYYADSVKGRFSISRDNAKNTVYLQMNSLKPEDTAVYYCAAGRRYSGSYDYWGQGTQVTVSS | high polyreactivity |
| QVQLVESGGGLVQAGGSLRLSCAASGRILYSYAMGWYRQAPGKERELVAAISSTGSTYYADSVKGRFTISRDNAKNTVYLQMNSLKPEDTAVYYCAATFYPYQVHHYYYWGQGTQVTVSS | low polyreactivity |
| QVQLVESGGGLVQAGGSLRLSCAASGRILYTYAMGWYRQAPGKERELVASIRSSGGITYYADSVKGRFTISRDNAKNTVYLQMNSLKPEDTAVYYCNAPYLVGTGPNGEYDYWGQGTEVTVSS | high polyreactivity |
| QVQLVESGGGLVQAGGSLRLSCAASGRILYWYTMGWYRQAPGKERELVAAITDSVGRTYYADSVKGRFTISRDNAKNTVYLQMNSLKPEDTAVYYCNADPYAQQPYSYYYGYDYWGQGTQVTVSS | low polyreactivity |
| QVQLVESGGGLVQAGGSLRLSCAASGRILYYYAMGWYRQAPGKERELVAAISGSAGTTYYADSVKGRFTISRDNAKNPVYLQMNSLKPEDTAVYYCSKYYPYIQADYGYDYWGQGTQVSVSS | low polyreactivity |
| QVQLVESGGGLVQAGGSLRLSCAASGRILYYYAMGWYRQAPGKERELVAGITTDDSTNYADSVKGRFTISRDNAKNTVYFQMNSLKPEDTAVYYCAAKYVHGEYDYWGQGTQVTVSS | low polyreactivity |
| QVQLVESGGGLVQAGGSLRLSCAASGRIQDINAMGWYRQAPGKERELVAAISYGGGTTYYADSVKGRFTISRDNAKNTVYLQMNSLKPEDTAVYYCAKDGYFPEFDYWGQGTQVTVSS | high polyreactivity |
| QVQLVESGGGLVQAGGSLRLSCAASGRIRFNVMGWYRQAPGKERELVAAITGGGTTYYADSVKGRFTISRDNAKNTVYLQMNSLKPEDTAVYYCAARALYSRINQIPSYYWGQGTQVTVSS | high polyreactivity |
| QVQLVESGGGLVQAGGSLRLSCAASGRISAFNSMGWYRQAPGKERELVAAINVSGGNTYYADSVKGRFTISRDNAKNTFFLQMNSLKPEDTAVYYCAAERRRWGLDYYYWGQGTQVTVSS | high polyreactivity |
| QVQLVESGGGLVQAGGSLRLSCAASGRISARYVMGWYRQAPGKERELVAAISWSGDRTYYADSVKGRFTISRDNAKNTVYLQMNSLKPEDTAVYYCATGFYSRLAYGYGYWGQGSQVTVSS | high polyreactivity |

| Sequence | polyreactivity (PSR sort gate) |
| --- | --- |
| QVQLVESGGGLVQAGGSLRLSCAASGRISASYAMGWYRQAPGKERELVAAITGSGGSTYYADSVKGRFTISRDNAKNTVYVQMNSLNPEDTAVYYCAADPGWAWWVLNYWVQGTQVTVSS | low polyreactivity |
| QVQLVESGGGLVQAGGSLRLSCAASGRISASYAMGWYRQAPGKEREWVAAITGSGGSTYYADSVKGRFTISRDNAQNTVYLQMNSLKPEDTGVYYCAAEPVLSVFFEFDSWGQGTQVTVSS | low polyreactivity |
| QVQLVESGGGLVQAGGSLRLSCAASGRISFRIRWDGIDRRLGKKGSWLPLLTNTGSTNYADSVKGRFTISRDNAKNTVYLQMNSLKPEDTAVYYCNADQTGGSSYPAYFEYDYWGQGTQVTVSS | low polyreactivity |
| QVQLVESGGGLVQAGGSLRLSCAASGRISGFYTMGWYRQAPGKERELVATITRSGSRTYYADSVKGRFTISRDNAKNTVYLQMNSLKPEDTAVYYCARSQAVYDGWFAKFGYWGQGTQVTVSS | low polyreactivity |
| QVQLVESGGGLVQAGGSLRLSCAASGRISGLYAMGWSRQAPGKEWELVADSTYYADSVKGRFTISRDNAKNTVYLQMNSLKEEDTAVYYCAAVGGGTSTYSGDYWGQGTQVTVSS | high polyreactivity |
| QVQLVESGGGLVQAGGSLRLSCAASGRISGWNAMGWYRQAPGKERELVAASTWSDGSTYYADSVKGRFTISRDNAKNTVYLQMNSLKPEDTAVYYCAAEYGWYAGDPYYGYDYYWGQGTQVTVSS | high polyreactivity |
| QVQLVESGGGLVQAGGSLRLSCAASGRISIIYAMGWYRQAPGKERELVARISGSGGSTNYADSVKGRFTISRDNAKNTVYLQMISLKPEDTAVYYCAAVPWRIHKYYYWGQGTQVTVSS | high polyreactivity |
| QVQLVESGGGLVQAGGSLRLSCAASGRISKRNVMGWYRQAPGKERELVAGITSTGSTSYADSVKGRFTISRDNAKNTVYLQMNSLKPEDTAVYYCAARGQATYNWGQGTQVTVSS | high polyreactivity |
| QVQLVESGGGLVQAGGSLRLSCAASGRISPKNAMGWNTQAPGKERELVATIRKIGGRTYYADSVKGRFTISRDNAKNTVYLQMNSLKPEDTAVYYCATDFAPSYYPDRFDYWGQGTQVTVSS | low polyreactivity |
| QVQLVESGGGLVQAGGSLRLSCAASGRISRGYAMGWYRQAPGKERELVAAIDSDGDTNYADSVKGRFTISRDNAKNTVYLQMNRLKAEDTAVYYCNKDGAYKTAYKRWTLYDYWGQGTQVTVSS | low polyreactivity |
| QVQLVESGGGLVQAGGSLRLSCAASGRISRLYAMGWYRQAPGKERELVAAITDSGGSTYYADSVKGRFTISRDNAKNTVYLHMNSLKPEDTAVYDCAATWSNWYREYYYWGQGTQVTVSS | high polyreactivity |
| QVQLVESGGGLVQAGGSLRLSCAASGRISSYYVMGWYRQAPGKERELVAAITGGDSTNYADSVKGRFTISRDNAKNTVYLQMNSLKPEDTAVYYCAAKAYSYSRWGYYGYYYWGQGSQVTVSS | high polyreactivity |
| QVQLVESGGGLVQAGGSLRLSCAASGRISTAYAMGWYRQAPGKERELVAAISSGTSTTYADSVKGRFTISRDNAKNTVYLQMNSLQPEDTAVYYCNADSWYGHYDSWGQGTQVTESS | low polyreactivity |
| QVQLVESGGGLVQAGGSLRLSCAASGRISTYTMGWYRQAPGKERELVATISTDASTNYADSVKGRFTISRDNAKNTVYLQINSLKPEDTAVYYCAAVIVNQYYDYWGQGTQVTVSS | low polyreactivity |
| QVQLVESGGGLVQAGGSLRLSCAASGRISVFNAMGWYRHAPGKERELVAAITSGGSTNYADSVKGRFTISRDNAKNTVYLQMNSLKPEDTAVYYCNADVYHSHEPHYDYWGQGTQVTVSS | low polyreactivity |
| QVQLVESGGGLVQAGGSLRLSCAASGRISVFNAMGWYRQAPGKERELVATITDGGSTYYADSVKGRFTISRDNAKNSVYLQMNSLKPEDTAVYYCAKKQVTTDVSSETFVLEMDYLGQGTQVTVSS | low polyreactivity |
| QVQLVESGGGLVQAGGSLRLSCAASGRISVFYTMGWYRQAPGKERELVAVIRTSGGRTNYADSVKGRFTISRDNAKNTVYLQMNSLKPEDTAVYYCAARVVRYGYKYYYWGQGTQVTVSS | low polyreactivity |
| QVQLVESGGGLVQAGGSLRLSCAASGRISWGYAMGWYRQAPGKERELVAVINFNGGRTYYADSVKGRFTISRDNAKNTVYLQMNSLKAEDTAVYYCAADSGYEYDYWGQGTQVTVSS | low polyreactivity |
| QVQLVESGGGLVQAGGSLRLSCAASGRISYANSMGWYRQAPGKESELVASITYSAGSTYADSVKGRFTISRDNAKNTVYLQMNSLKPEDTAVYYCAKRPSQHYRSYLMDYWGQGTQVTVSS | low polyreactivity |
| QVQLVESGGGLVQAGGSLRLSCAASGRISYLYTMGWYRQAPGKERELVAAIRWRDGSTYYADSVKGRFTISRDNAKNTVYLQMNSLKPEDTAVYYCAKRFAGGEYGYYWGQGTQVTVSS | low polyreactivity |
| QVQLVESGGGLVQAGGSLRLSCAASGRISYYYLGWYRQAPGKERELVAAISWNGGRTYYADSVKGRFTISRDNAKNTVYLQMNSLKPEDTAVYYCAAKTGYYPYGYWGQGTQVTVSS | high polyreactivity |

Reference: the nanobody polyreactivity screen of Harvey et al. (2022)
